According to PMC3261901:

How the values were obtained:
[1] = molecular target: Trypanosoma cruzi oligopeptidase B (OPBTc), recombinant, N-terminal His-tagged (Trypanosoma cruzi (CL Brener)); test: SEC; enzyme incubated at 28, 37, 42, 50 or 60°C for 20 min before the run; Superdex 200 10/300, 25 mM Tris-HCl pH 8.0; at 50 and 60°C a void-volume aggregate peak and a second peak of 160 kDa
[2] = molecular target: Trypanosoma cruzi oligopeptidase B (OPBTc), recombinant, N-terminal His-tagged (Trypanosoma cruzi (CL Brener)); test: SEC; Superdex 200 10/300, 25 mM Tris-HCl pH 8.0, 200 mM NaCl, room temperature, calibrated with proteins of known Stokes radii; also run with 0.5 or 1.0 M NaCl (same elution, dimer not disrupted)
[3] = molecular target: Trypanosoma cruzi oligopeptidase B (OPBTc), recombinant, N-terminal His-tagged (Trypanosoma cruzi (CL Brener)); test: AUC; sedimentation velocity, 10 °C, OPBTc at 28.1, 8.4 and 1.8 µM in 25 mM Tris pH 8.0, 100 mM NaCl, 130,000 x g; c(s) analysis, s combined with the Stokes radius from SEC

Measured: stoichiometry N

Trypanosoma cruzi oligopeptidase B (OPBTc), recombinant, N-terminal His-tagged (enzyme)
2: all assays above
